Experimental findings from patent publication CN117866092A (BEIJING KENUO XINCHENG TECH CO LTD, dated 2024) are described below.

A word on the Kd: it is the equilibrium constant for the complex coming apart. The term koff denotes the first-order rate constant of dissociation. Low readings indicate slow dissociation, high ones fast dissociation. By kon is commonly meant the rate constant with which the complex forms. Read a high kon as fast association. Broadly, the EC50 is the concentration at which the effect is half-maximal. A higher EC50 goes with a less potent agent.

The target of test [1] is T1, 人CD73-his重组蛋白(序列号:NM_002526.3，27-547aa) (human, UniProt P21589 27-547).
T1 construct: range 27-547; Transiently expressed in eukaryotic cells; also called rhCD73-his; 重组人CD73-his; not shown: his tag
T1 sequence (looked up): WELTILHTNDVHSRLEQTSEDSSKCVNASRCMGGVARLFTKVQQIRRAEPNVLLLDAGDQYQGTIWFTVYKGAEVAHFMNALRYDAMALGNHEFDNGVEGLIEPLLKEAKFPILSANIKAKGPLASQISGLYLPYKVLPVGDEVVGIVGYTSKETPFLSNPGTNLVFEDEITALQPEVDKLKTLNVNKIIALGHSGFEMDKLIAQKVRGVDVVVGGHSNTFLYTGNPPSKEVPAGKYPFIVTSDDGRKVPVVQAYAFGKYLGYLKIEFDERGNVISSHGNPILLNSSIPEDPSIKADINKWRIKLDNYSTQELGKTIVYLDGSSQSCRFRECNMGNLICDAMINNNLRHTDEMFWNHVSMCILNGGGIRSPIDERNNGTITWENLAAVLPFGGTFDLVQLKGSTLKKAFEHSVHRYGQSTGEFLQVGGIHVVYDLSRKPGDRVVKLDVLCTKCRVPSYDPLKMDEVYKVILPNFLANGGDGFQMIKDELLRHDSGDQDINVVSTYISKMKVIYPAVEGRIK
In words: BLI (Octet QKe), antibody captured on AHC sensor, 60 nM CD73-his as analyte, 1:1 fit. For orientation: BLI is a label-free optical method that tracks binding on a fibre tip over time.

The target in test [2] is T2, 细胞表面人CD73蛋白 (human CD73 on the cell surface) (human, UniProt P21589 27-549).
T2 construct: whole, on cells; Endogenous CD73 on human tumour cell lines; also called 细胞表面CD73; CD73 on BXPC-3, SKOV-3, A375, MDA-MB-231 and A431 cells
T2 sequence (looked up): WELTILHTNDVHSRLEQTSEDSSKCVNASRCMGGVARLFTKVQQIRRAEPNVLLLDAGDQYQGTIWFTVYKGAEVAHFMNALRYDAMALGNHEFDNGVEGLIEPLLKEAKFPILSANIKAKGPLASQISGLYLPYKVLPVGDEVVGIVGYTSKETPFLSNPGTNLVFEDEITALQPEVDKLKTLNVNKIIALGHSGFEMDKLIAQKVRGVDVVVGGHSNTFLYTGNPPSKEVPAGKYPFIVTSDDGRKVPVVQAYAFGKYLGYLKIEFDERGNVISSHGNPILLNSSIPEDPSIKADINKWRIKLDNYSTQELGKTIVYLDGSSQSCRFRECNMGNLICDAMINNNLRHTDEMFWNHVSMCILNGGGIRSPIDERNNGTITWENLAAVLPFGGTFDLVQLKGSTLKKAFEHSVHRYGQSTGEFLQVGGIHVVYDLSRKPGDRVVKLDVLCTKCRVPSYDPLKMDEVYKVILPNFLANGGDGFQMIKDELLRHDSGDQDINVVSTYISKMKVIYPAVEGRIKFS
In words: flow cytometry on BXPC-3 cells, FITC anti-human IgG. A general note: In flow cytometry, cells or beads pass a laser one at a time.

B1: MEDI9447 (antibody, V domains shown)
VH: EVQLLESGGGLVQPGGSLRLSCAASGFTFSSYAYSWVRQAPGKGLEWVSAISGSGGRTYYADSVKGRFTISRDNSKNTLYLQMNSLRAEDTAVYYCARLGYGRVDEWGRGTLVTVSS
VL: QSVLTQPPSASGTPGQRVTISCSGSLSNIGRNPVNWYQQLPGTAPKLLIYLDNLRLSGVPDRFSGSKSGTSASLAISGLQSEDEADYYCATWDDSHPGWTFGGGTKLTVLG
Turning to B1, in test [1], the Kd was found to be 0.635 nM, the koff came to 0.000105 s⁻¹ and the kon stood at 165000 M⁻¹ s⁻¹. Further, the response in test [2] was half-maximal at 0.242 nM (EC50).
